The record followed here is patent US20090111753A1, “Nogo-A Polypeptide Fragments, Variant Nogo Receptor-1 Polypeptides, and Uses Thereof” (Yale University, priority 2004, published 2009).

In test [1] the target is T1, AP-fused Amino-Nogo fragment B4C (a.a. 950-1018) (human, UniProt Q9NQC3 950-1018).
T1 construct: also called AmNg B4C; AP-B4C; not shown: alkaline phosphatase (AP), vector pcAP6
T1 sequence: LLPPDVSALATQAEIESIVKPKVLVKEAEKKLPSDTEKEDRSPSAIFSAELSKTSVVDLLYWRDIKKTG
The test can be described thus: AP-ligand binding, COS-7.

For test [2], the target named is T2, AP fusion protein with the B4C fragment of Amino-Nogo-A fused directly to Nogo-66 (human, UniProt Q9NQC3 1055-1120).
T2 construct: domain: Nogo-66; also called AP-B4C66; AP-B4C-66; not shown: alkaline phosphatase (AP), vector pcAP6
T2 sequence: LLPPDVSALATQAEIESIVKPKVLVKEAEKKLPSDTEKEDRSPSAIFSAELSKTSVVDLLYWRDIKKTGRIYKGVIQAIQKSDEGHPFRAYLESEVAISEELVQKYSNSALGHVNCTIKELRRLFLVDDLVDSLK
The test can be described thus: AP-ligand binding, COS-7.

The next test addresses T3, AP-Nogo-66 (UniProt Q9NQC3 1055-1120).
T3 construct: domain: Nogo-66; construct described elsewhere (Fournier 2001); also called AP-Ng66; Ng66; not shown: alkaline phosphatase (AP); construct described elsewhere
T3 sequence (looked up): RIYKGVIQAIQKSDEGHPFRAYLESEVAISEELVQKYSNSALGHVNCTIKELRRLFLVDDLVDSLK
The test can be described thus: AP-ligand binding, COS-7.

The test system of the next test is NgR ligands. Kind of test: Binding of alanine substituted NgR mutants to NgR ligands, summary categories. As to conditions: AP-Nogo66, AP-B4C, AP-B4C66, AP-Lingo-1, AP-OMgp and AP-MAG; compared to wild type NgR. In short, it runs like this: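 Human NgR1 template; 74 mutants with 1-8 solvent-exposed charged surface residues (within 5 Å) Ala-substituted, plus glycosylation-site mutants and D259N polymorphism. Mutants tested for binding of AP-tagged Nogo66, Amino-Nogo-B4C, B4C66, MAG, OMgp and Lingo-1; each classed as losing all, keeping all, or selective ligand binding.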

B1: human NgR1 alanine mutant 67, 68, 71 (receptor)
chain: CPGACVCYNEPKVTTSCPQQGLQAVPVGIPAASQRIFLHGAAISAVPAASFRACRNLTILWLHSNVLARIDAAAFTGLALLEQLDLSDNAQLRSVDPATFHGLGRLHTLHLDRCGLQELGPGLFRGLAALQYLYLQDNALQALPDDTFRDLGNLTHLFLHGNRISSVPERAFRGLHSLDRLLLHQNRVAHVHPHAFRDLGRLMTLYLFANNLSALPTEALAPLRALQYLRLNDNPWVCDCRARPLWAWLQKFRGSSSEVPCSLPQRLAGRDLKRLAANDLQGCAVATGPYHPIWTGRATDEEPLGLPKCCQPDAADKASVLEPGRPASAGNALKGRVPPGDSPPGNGSGPRHINDSPFGTLPGSAEPPLTAVRPEGSEPPGFPTSGPRRRPGCSRKNRTRSHCRLGQAGSGGGGTGDSEGSGALPSLTCSLTPLGLALVLWTVLGPC
As for B1, the binding result (in test [1]; in test [2]; with AP-Nogo-66) was “no binding” each time. In the test with NgR ligands, the “ligand binding category of NgR mutant (Table II)” value (from here on “ligand binding category”) is reported as “No binding”.

B2: human NgR1 alanine mutant 111, 113, 114, 138 (receptor)
chain: CPGACVCYNEPKVTTSCPQQGLQAVPVGIPAASQRIFLHGNRISHVPAASFRACRNLTILWLHSNVLARIDAAAFTGLALLEQLALAANAQLRSVDPATFHGLGRLHTLHLARCGLQELGPGLFRGLAALQYLYLQDNALQALPDDTFRDLGNLTHLFLHGNRISSVPERAFRGLHSLDRLLLHQNRVAHVHPHAFRDLGRLMTLYLFANNLSALPTEALAPLRALQYLRLNDNPWVCDCRARPLWAWLQKFRGSSSEVPCSLPQRLAGRDLKRLAANDLQGCAVATGPYHPIWTGRATDEEPLGLPKCCQPDAADKASVLEPGRPASAGNALKGRVPPGDSPPGNGSGPRHINDSPFGTLPGSAEPPLTAVRPEGSEPPGFPTSGPRRRPGCSRKNRTRSHCRLGQAGSGGGGTGDSEGSGALPSLTCSLTPLGLALVLWTVLGPC
For the molecule B2, the binding result (in test [1]; in test [2]; in the test with AP-Nogo-66) was “no binding” each time. Further, the “ligand binding category” value in the test with NgR ligands is on record as “No binding”.

B3: human NgR1 alanine mutant 114, 117, 163 (receptor)
chain: CPGACVCYNEPKVTTSCPQQGLQAVPVGIPAASQRIFLHGNRISHVPAASFRACRNLTILWLHSNVLARIDAAAFTGLALLEQLDLSANAALRSVDPATFHGLGRLHTLHLDRCGLQELGPGLFRGLAALQYLYLQANALQALPDDTFRDLGNLTHLFLHGNRISSVPERAFRGLHSLDRLLLHQNRVAHVHPHAFRDLGRLMTLYLFANNLSALPTEALAPLRALQYLRLNDNPWVCDCRARPLWAWLQKFRGSSSEVPCSLPQRLAGRDLKRLAANDLQGCAVATGPYHPIWTGRATDEEPLGLPKCCQPDAADKASVLEPGRPASAGNALKGRVPPGDSPPGNGSGPRHINDSPFGTLPGSAEPPLTAVRPEGSEPPGFPTSGPRRRPGCSRKNRTRSHCRLGQAGSGGGGTGDSEGSGALPSLTCSLTPLGLALVLWTVLGPC
Regarding B3, the binding result (in test [1]; in test [2]; with AP-Nogo-66) was “no binding” in each case. Further, in the test with NgR ligands, the “ligand binding category” value is on record as “No binding”.

B4: human NgR1 alanine mutant 182, 186, 158, 160 (receptor)
chain: CPGACVCYNEPKVTTSCPQQGLQAVPVGIPAASQRIFLHGNRISHVPAASFRACRNLTILWLHSNVLARIDAAAFTGLALLEQLDLSDNAQLRSVDPATFHGLGRLHTLHLDRCGLQELGPGLFRGLAALQALALQDNALQALPDDTFRDLGNLTALFLAGNRISSVPERAFRGLHSLDRLLLHQNRVAHVHPHAFRDLGRLMTLYLFANNLSALPTEALAPLRALQYLRLNDNPWVCDCRARPLWAWLQKFRGSSSEVPCSLPQRLAGRDLKRLAANDLQGCAVATGPYHPIWTGRATDEEPLGLPKCCQPDAADKASVLEPGRPASAGNALKGRVPPGDSPPGNGSGPRHINDSPFGTLPGSAEPPLTAVRPEGSEPPGFPTSGPRRRPGCSRKNRTRSHCRLGQAGSGGGGTGDSEGSGALPSLTCSLTPLGLALVLWTVLGPC
Turning to B4, the binding result (in test [1]; in test [2]; in the test with AP-Nogo-66) was “no binding” throughout. Also, the “ligand binding category” value with NgR ligands was “No binding”.

B5: human NgR1 alanine mutant 182, 186, 210 (receptor)
chain: CPGACVCYNEPKVTTSCPQQGLQAVPVGIPAASQRIFLHGNRISHVPAASFRACRNLTILWLHSNVLARIDAAAFTGLALLEQLDLSDNAQLRSVDPATFHGLGRLHTLHLDRCGLQELGPGLFRGLAALQYLYLQDNALQALPDDTFRDLGNLTALFLAGNRISSVPERAFRGLHSLDRLLLAQNRVAHVHPHAFRDLGRLMTLYLFANNLSALPTEALAPLRALQYLRLNDNPWVCDCRARPLWAWLQKFRGSSSEVPCSLPQRLAGRDLKRLAANDLQGCAVATGPYHPIWTGRATDEEPLGLPKCCQPDAADKASVLEPGRPASAGNALKGRVPPGDSPPGNGSGPRHINDSPFGTLPGSAEPPLTAVRPEGSEPPGFPTSGPRRRPGCSRKNRTRSHCRLGQAGSGGGGTGDSEGSGALPSLTCSLTPLGLALVLWTVLGPC
As for B5, the binding result (in test [1]; in test [2]; in the test with AP-Nogo-66) was “no binding” each time. Besides, the “ligand binding category” value in the test on NgR ligands is reported as “No binding”.

B6: human NgR1 alanine mutant 111, 113, 114 (receptor)
chain: CPGACVCYNEPKVTTSCPQQGLQAVPVGIPAASQRIFLHGNRISHVPAASFRACRNLTILWLHSNVLARIDAAAFTGLALLEQLALAANAQLRSVDPATFHGLGRLHTLHLDRCGLQELGPGLFRGLAALQYLYLQDNALQALPDDTFRDLGNLTHLFLHGNRISSVPERAFRGLHSLDRLLLHQNRVAHVHPHAFRDLGRLMTLYLFANNLSALPTEALAPLRALQYLRLNDNPWVCDCRARPLWAWLQKFRGSSSEVPCSLPQRLAGRDLKRLAANDLQGCAVATGPYHPIWTGRATDEEPLGLPKCCQPDAADKASVLEPGRPASAGNALKGRVPPGDSPPGNGSGPRHINDSPFGTLPGSAEPPLTAVRPEGSEPPGFPTSGPRRRPGCSRKNRTRSHCRLGQAGSGGGGTGDSEGSGALPSLTCSLTPLGLALVLWTVLGPC
B6: the binding result (in test [1]; in test [2]; with AP-Nogo-66) was “no binding” throughout. Further, the “ligand binding category” value in the test with NgR ligands is “No binding”.

B7: human NgR1 alanine mutant 210, 232, 234 (receptor)
chain: CPGACVCYNEPKVTTSCPQQGLQAVPVGIPAASQRIFLHGNRISHVPAASFRACRNLTILWLHSNVLARIDAAAFTGLALLEQLDLSDNAQLRSVDPATFHGLGRLHTLHLDRCGLQELGPGLFRGLAALQYLYLQDNALQALPDDTFRDLGNLTHLFLHGNRISSVPERAFRGLHSLDRLLLAQNRVAHVHPHAFRDLGRLMTLALAANNLSALPTEALAPLRALQYLRLNDNPWVCDCRARPLWAWLQKFRGSSSEVPCSLPQRLAGRDLKRLAANDLQGCAVATGPYHPIWTGRATDEEPLGLPKCCQPDAADKASVLEPGRPASAGNALKGRVPPGDSPPGNGSGPRHINDSPFGTLPGSAEPPLTAVRPEGSEPPGFPTSGPRRRPGCSRKNRTRSHCRLGQAGSGGGGTGDSEGSGALPSLTCSLTPLGLALVLWTVLGPC
On to B7, for which the binding result (in test [1]; in test [2]; with AP-Nogo-66) was “no binding” throughout. Also, the “ligand binding category” value in the test with NgR ligands was “No binding”.

B8: human NgR1 alanine mutant 67, 68, 95, 97 (receptor)
chain: CPGACVCYNEPKVTTSCPQQGLQAVPVGIPAASQRIFLHGAAISHVPAASFRACRNLTILWLHSNVLAAIAAAAFTGLALLEQLDLSDNAQLRSVDPATFHGLGRLHTLHLDRCGLQELGPGLFRGLAALQYLYLQDNALQALPDDTFRDLGNLTHLFLHGNRISSVPERAFRGLHSLDRLLLHQNRVAHVHPHAFRDLGRLMTLYLFANNLSALPTEALAPLRALQYLRLNDNPWVCDCRARPLWAWLQKFRGSSSEVPCSLPQRLAGRDLKRLAANDLQGCAVATGPYHPIWTGRATDEEPLGLPKCCQPDAADKASVLEPGRPASAGNALKGRVPPGDSPPGNGSGPRHINDSPFGTLPGSAEPPLTAVRPEGSEPPGFPTSGPRRRPGCSRKNRTRSHCRLGQAGSGGGGTGDSEGSGALPSLTCSLTPLGLALVLWTVLGPC
As for B8, the binding result (in test [1]; in test [2]; with AP-Nogo-66) was “no binding” in each case. In addition, the “ligand binding category” value with NgR ligands is “No binding”.

B9: human NgR1 alanine mutant 87, 89, 133, 136 (receptor)
chain: CPGACVCYNEPKVTTSCPQQGLQAVPVGIPAASQRIFLHGNRISHVPAASFRACRNLTILALASNVLARIDAAAFTGLALLEQLDLSDNAQLRSVDPATFHGLGRLATLALDRCGLQELGPGLFRGLAALQYLYLQDNALQALPDDTFRDLGNLTHLFLHGNRISSVPERAFRGLHSLDRLLLHQNRVAHVHPHAFRDLGRLMTLYLFANNLSALPTEALAPLRALQYLRLNDNPWVCDCRARPLWAWLQKFRGSSSEVPCSLPQRLAGRDLKRLAANDLQGCAVATGPYHPIWTGRATDEEPLGLPKCCQPDAADKASVLEPGRPASAGNALKGRVPPGDSPPGNGSGPRHINDSPFGTLPGSAEPPLTAVRPEGSEPPGFPTSGPRRRPGCSRKNRTRSHCRLGQAGSGGGGTGDSEGSGALPSLTCSLTPLGLALVLWTVLGPC
Regarding B9, the binding result (in test [1]; in test [2]; with AP-Nogo-66) was “no binding” in each case. For the same molecule, in the test with NgR ligands, the “ligand binding category” value is “No binding”.
